In PMC12177922, “In Vivo Ribosome-Amplified MetaBOlism, RAMBO, Effect Observed by Real Time Pulse Chase, RTPC, NMR Spectroscopy” (Biochemistry, 2025):

Experiments:
[1] = biological target: Pyruvate kinase I from E. coli, PYK-F (E. coli) (UniProt P0AD61)
[2] = biological target: Pyruvate kinase I from E. coli, PYK-F (E. coli) (UniProt P0AD61); remark: listed apart in the source
[3] = biological target: Pyruvate kinase I from E. coli, PYK-F (E. coli) (UniProt P0AD61); remark: listed apart in the source
[4] = biological target: Pyruvate kinase I from E. coli, PYK-F (E. coli) (UniProt P0AD61); test: ribosome titration of enzyme activity (direct 1H NMR kinetic assay); 120 nM PYK-F, ribosomes titrated up to 8 uM; change of initial velocity (pyruvate methyl peak) at 2 mM PEP and 4 mM ADP; 10 mM sodium phosphate pH 7.5, 50 mM KCl, 10 mM MgCl2, 10 °C; one site-specific binding model …; saturation not reached

## Intact 70S ribosomes from E. coli strain MRE600 (from UniProt P60723 1-201; P0AG55 1-177; P0A7R1 1-149; P0AA10 1-142; P0AG44 1-127; P0AG48 1-103; P61175 1-110; P68919 1-94; P0A7L8 1-85; P0A7M9 1-70; P0AG67 1-557; P0A7V3 1-233; P0A7X3 1-130; P0A7S3 1-124; P0A7U7 1-87) (complex)
[1]
  kcat of PYK-F (ADP saturation curve) with 2 μM ribosomes against none: 10%
[2]
  PYK-F activity (initial velocity, NMR kinetic assay) with 3 μM ribosomes against none: 35%
[3]
  decrease in sum of the influx rates of lactate, ethanol and acetate in living E. coli BL21(DE3) (RTPC-NMR), 2x chloramphenicol against none: 32%
[4]
  Kd: 10 µM
